Measured values: the supplement of paper PMC10567573

B1: COX4I1 (parent)
chain: FDKEWVAKQTKRMLDMKVNPIQGL

Variants of: B1
Assay: protein stability index of a GFP-peptide fusion (GPS, HEK-293T) (PSI 1-6); higher = more stable
Details: c terminus: a fixed tail appended
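Further: lentivirally expressed fusions sorted by FACS into six bins by GFP to DsRed ratio, PSI derived from sequencing read proportions per bin multiplied by bin number.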

**Q.** Which protein stability index does the source give for FDKEWVAKQTKQMLDMKVNPIQGL here?
**A.** Its protein stability index is 2.84.

**Q.** Which protein stability index does the source give for FDKEWVAKQTKSMLDMKVNPIQGL here?
**A.** Its protein stability index is 3.04.

**Q.** For FDKEWVAKQTKTMLDMKVNPIQGL, which protein stability index is on record?
**A.** The protein stability index was 1.54.

**Q.** Which protein stability index does the source give for FDKEWVAKQTKVMLDMKVNPIQGL here?
**A.** Its protein stability index is 2.27.

**Q.** With FDKEWVAKQTKWMLDMKVNPIQGL as the variant, how does the protein stability index read?
**A.** Its protein stability index is 1.65.

**Q.** For FDKEWVAKQTKYMLDMKVNPIQGL, which protein stability index is on record?
**A.** The protein stability index was 1.56.

**Q.** With FDKEWVAKQTKRALDMKVNPIQGL as the variant, how does the protein stability index read?
**A.** The protein stability index was 1.13.

**Q.** For FDKEWVAKQTKRCLDMKVNPIQGL, which protein stability index is on record?
**A.** The protein stability index was 2.17.

**Q.** Which protein stability index does the source give for FDKEWVAKQTKRDLDMKVNPIQGL here?
**A.** Its protein stability index is 1.59.

**Q.** For FDKEWVAKQTKRELDMKVNPIQGL, which protein stability index is on record?
**A.** The protein stability index was 2.06.

**Q.** Which protein stability index does the source give for FDKEWVAKQTKRFLDMKVNPIQGL here?
**A.** The protein stability index was 2.12.

**Q.** Which protein stability index does the source give for FDKEWVAKQTKRGLDMKVNPIQGL here?
**A.** The protein stability index was 1.64.

**Q.** With FDKEWVAKQTKRHLDMKVNPIQGL as the variant, how does the protein stability index read?
**A.** Its protein stability index is 1.43.

**Q.** For FDKEWVAKQTKRILDMKVNPIQGL, which protein stability index is on record?
**A.** The protein stability index was 2.34.

**Q.** For FDKEWVAKQTKRKLDMKVNPIQGL, which protein stability index is on record?
**A.** Its protein stability index is 1.88.

**Q.** Which protein stability index does the source give for FDKEWVAKQTKRLLDMKVNPIQGL here?
**A.** Its protein stability index is 2.36.

**Q.** Which protein stability index does the source give for FDKEWVAKQTKRNLDMKVNPIQGL here?
**A.** Its protein stability index is 2.23.

**Q.** Which protein stability index does the source give for FDKEWVAKQTKRPLDMKVNPIQGL here?
**A.** The protein stability index was 2.35.

**Q.** For FDKEWVAKQTKRQLDMKVNPIQGL, which protein stability index is on record?
**A.** Its protein stability index is 2.99.

**Q.** For FDKEWVAKQTKRRLDMKVNPIQGL, which protein stability index is on record?
**A.** The protein stability index was 1.64.

**Q.** For FDKEWVAKQTKRSLDMKVNPIQGL, which protein stability index is on record?
**A.** The protein stability index was 2.4.

**Q.** For FDKEWVAKQTKRTLDMKVNPIQGL, which protein stability index is on record?
**A.** Its protein stability index is 1.82.

**Q.** For FDKEWVAKQTKRWLDMKVNPIQGL, which protein stability index is on record?
**A.** Its protein stability index is 1.56.

**Q.** Which protein stability index does the source give for FDKEWVAKQTKRYLDMKVNPIQGL here?
**A.** Its protein stability index is 1.63.

**Q.** Which protein stability index does the source give for FDKEWVAKQTKRMADMKVNPIQGL here?
**A.** Its protein stability index is 2.35.

**Q.** For FDKEWVAKQTKRMCDMKVNPIQGL, which protein stability index is on record?
**A.** Its protein stability index is 1.38.

**Q.** For FDKEWVAKQTKRMDDMKVNPIQGL, which protein stability index is on record?
**A.** Its protein stability index is 2.06.

**Q.** With FDKEWVAKQTKRMEDMKVNPIQGL as the variant, how does the protein stability index read?
**A.** Its protein stability index is 1.43.

**Q.** Which protein stability index does the source give for FDKEWVAKQTKRMFDMKVNPIQGL here?
**A.** Its protein stability index is 2.88.

**Q.** For FDKEWVAKQTKRMGDMKVNPIQGL, which protein stability index is on record?
**A.** Its protein stability index is 1.72.

**Q.** For FDKEWVAKQTKRMHDMKVNPIQGL, which protein stability index is on record?
**A.** Its protein stability index is 1.65.

**Q.** With FDKEWVAKQTKRMIDMKVNPIQGL as the variant, how does the protein stability index read?
**A.** Its protein stability index is 2.1.

**Q.** With FDKEWVAKQTKRMKDMKVNPIQGL as the variant, how does the protein stability index read?
**A.** Its protein stability index is 2.12.

**Q.** Which protein stability index does the source give for FDKEWVAKQTKRMMDMKVNPIQGL here?
**A.** The protein stability index was 1.47.

**Q.** For FDKEWVAKQTKRMNDMKVNPIQGL, which protein stability index is on record?
**A.** Its protein stability index is 1.56.

**Q.** With FDKEWVAKQTKRMPDMKVNPIQGL as the variant, how does the protein stability index read?
**A.** Its protein stability index is 1.65.

**Q.** Which protein stability index does the source give for FDKEWVAKQTKRMQDMKVNPIQGL here?
**A.** The protein stability index was 1.23.

**Q.** With FDKEWVAKQTKRMRDMKVNPIQGL as the variant, how does the protein stability index read?
**A.** The protein stability index was 1.82.

**Q.** For FDKEWVAKQTKRMSDMKVNPIQGL, which protein stability index is on record?
**A.** Its protein stability index is 1.54.

**Q.** For FDKEWVAKQTKRMTDMKVNPIQGL, which protein stability index is on record?
**A.** The protein stability index was 1.79.

**Q.** With FDKEWVAKQTKRMVDMKVNPIQGL as the variant, how does the protein stability index read?
**A.** The protein stability index was 1.41.

**Q.** Which protein stability index does the source give for FDKEWVAKQTKRMYDMKVNPIQGL here?
**A.** The protein stability index was 2.42.

**Q.** With FDKEWVAKQTKRMLAMKVNPIQGL as the variant, how does the protein stability index read?
**A.** Its protein stability index is 1.62.

**Q.** Which protein stability index does the source give for FDKEWVAKQTKRMLCMKVNPIQGL here?
**A.** The protein stability index was 1.66.

**Q.** Which protein stability index does the source give for FDKEWVAKQTKRMLEMKVNPIQGL here?
**A.** The protein stability index was 1.68.

**Q.** With FDKEWVAKQTKRMLFMKVNPIQGL as the variant, how does the protein stability index read?
**A.** The protein stability index was 1.84.

**Q.** With FDKEWVAKQTKRMLGMKVNPIQGL as the variant, how does the protein stability index read?
**A.** Its protein stability index is 1.75.

**Q.** Which protein stability index does the source give for FDKEWVAKQTKRMLHMKVNPIQGL here?
**A.** The protein stability index was 1.88.

**Q.** With FDKEWVAKQTKRMLIMKVNPIQGL as the variant, how does the protein stability index read?
**A.** Its protein stability index is 1.76.

**Q.** For FDKEWVAKQTKRMLKMKVNPIQGL, which protein stability index is on record?
**A.** The protein stability index was 1.89.

**Q.** With FDKEWVAKQTKRMLLMKVNPIQGL as the variant, how does the protein stability index read?
**A.** Its protein stability index is 1.64.

**Q.** Which protein stability index does the source give for FDKEWVAKQTKRMLMMKVNPIQGL here?
**A.** Its protein stability index is 3.02.

**Q.** With FDKEWVAKQTKRMLNMKVNPIQGL as the variant, how does the protein stability index read?
**A.** The protein stability index was 1.58.

**Q.** Which protein stability index does the source give for FDKEWVAKQTKRMLPMKVNPIQGL here?
**A.** The protein stability index was 1.84.

**Q.** Which protein stability index does the source give for FDKEWVAKQTKRMLQMKVNPIQGL here?
**A.** The protein stability index was 1.6.

**Q.** With FDKEWVAKQTKRMLSMKVNPIQGL as the variant, how does the protein stability index read?
**A.** The protein stability index was 1.58.

**Q.** For FDKEWVAKQTKRMLTMKVNPIQGL, which protein stability index is on record?
**A.** Its protein stability index is 1.84.

**Q.** With FDKEWVAKQTKRMLVMKVNPIQGL as the variant, how does the protein stability index read?
**A.** Its protein stability index is 1.33.

**Q.** Which protein stability index does the source give for FDKEWVAKQTKRMLWMKVNPIQGL here?
**A.** The protein stability index was 2.07.

**Q.** For FDKEWVAKQTKRMLYMKVNPIQGL, which protein stability index is on record?
**A.** Its protein stability index is 2.36.

**Q.** For FDKEWVAKQTKRMLDAKVNPIQGL, which protein stability index is on record?
**A.** Its protein stability index is 1.48.

**Q.** With FDKEWVAKQTKRMLDCKVNPIQGL as the variant, how does the protein stability index read?
**A.** The protein stability index was 1.65.

**Q.** Which protein stability index does the source give for FDKEWVAKQTKRMLDDKVNPIQGL here?
**A.** Its protein stability index is 1.97.

**Q.** For FDKEWVAKQTKRMLDEKVNPIQGL, which protein stability index is on record?
**A.** Its protein stability index is 1.52.

**Q.** For FDKEWVAKQTKRMLDFKVNPIQGL, which protein stability index is on record?
**A.** The protein stability index was 1.62.

**Q.** Which protein stability index does the source give for FDKEWVAKQTKRMLDGKVNPIQGL here?
**A.** The protein stability index was 2.13.

**Q.** With FDKEWVAKQTKRMLDHKVNPIQGL as the variant, how does the protein stability index read?
**A.** Its protein stability index is 1.42.

**Q.** With FDKEWVAKQTKRMLDIKVNPIQGL as the variant, how does the protein stability index read?
**A.** The protein stability index was 2.1.

**Q.** Which protein stability index does the source give for FDKEWVAKQTKRMLDKKVNPIQGL here?
**A.** The protein stability index was 1.5.

**Q.** With FDKEWVAKQTKRMLDLKVNPIQGL as the variant, how does the protein stability index read?
**A.** Its protein stability index is 2.

**Q.** Which protein stability index does the source give for FDKEWVAKQTKRMLDNKVNPIQGL here?
**A.** The protein stability index was 1.67.

**Q.** Which protein stability index does the source give for FDKEWVAKQTKRMLDPKVNPIQGL here?
**A.** The protein stability index was 2.19.

**Q.** With FDKEWVAKQTKRMLDQKVNPIQGL as the variant, how does the protein stability index read?
**A.** Its protein stability index is 2.4.

**Q.** Which protein stability index does the source give for FDKEWVAKQTKRMLDRKVNPIQGL here?
**A.** Its protein stability index is 1.72.

**Q.** With FDKEWVAKQTKRMLDSKVNPIQGL as the variant, how does the protein stability index read?
**A.** The protein stability index was 1.88.

**Q.** Which protein stability index does the source give for FDKEWVAKQTKRMLDTKVNPIQGL here?
**A.** Its protein stability index is 1.79.

**Q.** With FDKEWVAKQTKRMLDVKVNPIQGL as the variant, how does the protein stability index read?
**A.** The protein stability index was 1.71.

**Q.** Which protein stability index does the source give for FDKEWVAKQTKRMLDWKVNPIQGL here?
**A.** Its protein stability index is 2.02.

**Q.** Which protein stability index does the source give for FDKEWVAKQTKRMLDYKVNPIQGL here?
**A.** Its protein stability index is 1.75.

**Q.** For FDKEWVAKQTKRMLDMAVNPIQGL, which protein stability index is on record?
**A.** The protein stability index was 1.96.

**Q.** With FDKEWVAKQTKRMLDMCVNPIQGL as the variant, how does the protein stability index read?
**A.** The protein stability index was 2.08.

**Q.** With FDKEWVAKQTKRMLDMDVNPIQGL as the variant, how does the protein stability index read?
**A.** The protein stability index was 2.49.

**Q.** With FDKEWVAKQTKRMLDMEVNPIQGL as the variant, how does the protein stability index read?
**A.** The protein stability index was 1.71.

**Q.** For FDKEWVAKQTKRMLDMFVNPIQGL, which protein stability index is on record?
**A.** The protein stability index was 2.16.

**Q.** Which protein stability index does the source give for FDKEWVAKQTKRMLDMGVNPIQGL here?
**A.** Its protein stability index is 1.51.

**Q.** For FDKEWVAKQTKRMLDMHVNPIQGL, which protein stability index is on record?
**A.** Its protein stability index is 1.44.

**Q.** For FDKEWVAKQTKRMLDMIVNPIQGL, which protein stability index is on record?
**A.** The protein stability index was 2.3.

**Q.** With FDKEWVAKQTKRMLDMLVNPIQGL as the variant, how does the protein stability index read?
**A.** Its protein stability index is 2.57.

**Q.** For FDKEWVAKQTKRMLDMMVNPIQGL, which protein stability index is on record?
**A.** The protein stability index was 1.58.

**Q.** With FDKEWVAKQTKRMLDMNVNPIQGL as the variant, how does the protein stability index read?
**A.** Its protein stability index is 1.88.

**Q.** With FDKEWVAKQTKRMLDMPVNPIQGL as the variant, how does the protein stability index read?
**A.** Its protein stability index is 2.24.

**Q.** With FDKEWVAKQTKRMLDMQVNPIQGL as the variant, how does the protein stability index read?
**A.** The protein stability index was 1.41.

**Q.** For FDKEWVAKQTKRMLDMRVNPIQGL, which protein stability index is on record?
**A.** Its protein stability index is 1.95.

**Q.** For FDKEWVAKQTKRMLDMSVNPIQGL, which protein stability index is on record?
**A.** Its protein stability index is 1.55.
